# Source: publication PMC6399320, “The SIAH2-NRF1 axis spatially regulates tumor microenvironment remodeling for tumor progression” (Nature Communications, 2019)
# T1: His-NRF1 (Nuclear Respiratory Factor 1), bacterially expressed (UniProt Q16656 1-503)
# T1 construct: Nuclear Respiratory Factor 1 (NRF1), cDNA cloned into pET28a; Vector pET28a; source: Escherichia coli BL21, expressed and purified
# T1 sequence (looked up): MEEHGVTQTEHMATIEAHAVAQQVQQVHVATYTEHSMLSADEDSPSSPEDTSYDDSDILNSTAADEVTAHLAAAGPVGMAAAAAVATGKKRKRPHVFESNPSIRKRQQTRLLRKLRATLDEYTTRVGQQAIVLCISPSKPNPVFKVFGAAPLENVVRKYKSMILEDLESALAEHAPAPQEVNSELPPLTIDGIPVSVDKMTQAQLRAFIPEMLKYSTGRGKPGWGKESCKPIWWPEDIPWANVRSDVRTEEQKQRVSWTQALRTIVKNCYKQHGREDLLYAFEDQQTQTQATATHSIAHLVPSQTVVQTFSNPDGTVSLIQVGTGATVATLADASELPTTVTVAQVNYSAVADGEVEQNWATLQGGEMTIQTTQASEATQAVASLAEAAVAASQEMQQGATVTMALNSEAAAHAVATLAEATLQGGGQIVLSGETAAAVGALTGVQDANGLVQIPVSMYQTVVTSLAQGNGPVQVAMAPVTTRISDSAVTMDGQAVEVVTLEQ
# B1: GST-SIAH2, bacterially expressed (enzyme, UniProt O43255 1-324, looked up)
# chain: MSRPSSTGPSANKPCSKQPPPQPQHTPSPAAPPAAATISAAGPGSSAVPAAAAVISGPGGGGGAGPVSPQHHELTSLFECPVCFDYVLPPILQCQAGHLVCNQCRQKLSCCPTCRGALTPSIRNLAMEKVASAVLFPCKYATTGCSLTLHHTEKPEHEDICEYRPYSCPCPGASCKWQGSLEAVMSHLMHAHKSITTLQGEDIVFLATDINLPGAVDWVMMQSCFGHHFMLVLEKQEKYEGHQQFFAIVLLIGTRKQAENFAYRLELNGNRRRLTWEATPRSIHDGVAAAIMNSDCLVFDTAIAHLFADNGNLGINVTISTCCP
# notes: E3 ligase SIAH2, cDNA cloned into pGEX-4T-1; Vector pGEX-4T-1; source: Escherichia coli BL21, expressed and purified
# Molecular target: T1, His-NRF1 (Nuclear Respiratory Factor …)
# Assay: pull-down; GST pull-down in vitro with bacterially expressed His-NRF1 and GST-SIAH2
# Conditions: both partners purified
binder,measurement,value
B1,binding result,binds
